Source: PMC4231748, “Human PrimPol mutation associated with high myopia has a DNA replication defect”

Target: T1, PrimPol1-354 (polymerase domain, wild type) (human, UniProt Q96LW4 1-354)
T1 sequence: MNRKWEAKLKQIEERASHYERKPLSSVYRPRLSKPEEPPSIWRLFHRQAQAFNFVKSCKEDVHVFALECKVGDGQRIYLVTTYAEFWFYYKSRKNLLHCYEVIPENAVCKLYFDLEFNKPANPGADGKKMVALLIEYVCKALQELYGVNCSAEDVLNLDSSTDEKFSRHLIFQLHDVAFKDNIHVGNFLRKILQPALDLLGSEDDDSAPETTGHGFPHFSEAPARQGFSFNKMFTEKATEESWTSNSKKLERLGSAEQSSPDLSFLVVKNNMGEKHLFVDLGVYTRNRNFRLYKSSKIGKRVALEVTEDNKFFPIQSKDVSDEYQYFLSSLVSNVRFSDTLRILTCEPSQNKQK
Test: EMSA; 10 mM Mg2+; text gives 0.67 uM, Figure 5 legend 0.69 uM; EMSA: 60 nM DNA, 10 mM Bis-Tris-Propane-HCl pH 7.0, 10 mM MgCl2, 1 mM DTT, 25 C, 60 min; 5% polyacrylamide gel in 0.5x TBE
Details: protein: recombinant; label: 5'-Hex on strand 1 (HP-20); 20 bp duplex, 5' overhang 30 nt on template strand (S12), other end blunt

B1: Overhanging DNA substrate (HP-20 primer / ND-50 TemplateTT) (dsDNA)
DNA 1: TGTCGTCTGTTCGGTCGTTC
DNA 2: CGCGCAGGGCGCACAACAGCCTTGAAGACCGAACGACCGAACAGACGACA
Kd: 690 nM
